Test results taken from patent US20150218551A1.

Target: LR1-C1 envelope protein (Env variant of HIV-1 AC10) on virions (HIV-1)
Assay: virion capture assay: virions titrated on plates coated with 4E10, bound virus measured by p24 ELISA; reference AC10 wild-type virions

4E10 antibody
fold increase in affinity against the AC10 wild-type variant: 4 fold
